We go through 27 substances from US20030133907A1.

The assay deals with T1, IFNG receptors on HeLa cells (UniProt P15260).
T1 sequence (looked up): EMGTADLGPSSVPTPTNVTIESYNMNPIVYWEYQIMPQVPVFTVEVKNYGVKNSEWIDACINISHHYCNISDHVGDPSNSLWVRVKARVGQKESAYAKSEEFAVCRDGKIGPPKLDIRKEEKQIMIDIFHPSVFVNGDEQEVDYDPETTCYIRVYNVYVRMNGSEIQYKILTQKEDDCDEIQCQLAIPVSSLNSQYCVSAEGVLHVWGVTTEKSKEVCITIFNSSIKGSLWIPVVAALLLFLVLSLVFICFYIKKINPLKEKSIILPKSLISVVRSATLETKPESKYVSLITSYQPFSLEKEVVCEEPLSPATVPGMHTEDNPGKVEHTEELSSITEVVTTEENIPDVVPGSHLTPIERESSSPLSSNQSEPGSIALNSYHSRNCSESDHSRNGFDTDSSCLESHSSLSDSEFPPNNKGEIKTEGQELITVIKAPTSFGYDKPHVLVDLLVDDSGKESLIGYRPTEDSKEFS
The assay is described as follows: cell-based or functional assay.
As for “E38C + S99T (full-length + 10 kDa mPEG) (from UniProt P01579 24-161) (ligand)”, the Activity relative to non-PEGylated product subjected to “PEGylation procedure” (%), Primary Assay was 41%.
With “E38C + S99T (full-length) (from UniProt P01579 24-161) (ligand)”, the % activity of full-length wt (AU/ml basis), Primary Assay was 71%; the % activity of full-length wt (specific activity), Primary Assay turned out to be 16%; the Activity (AU/ml), Primary Assay (ISRE-luciferase in HeLa cells), after transient transfection was 1e+07 AU/ml; the Specific activity (AU/mg), Primary Assay (ISRE-luciferase in HeLa cells), after purification was 3.4e+06 AU/mg.
For “E38N (full-length) (from UniProt P01579 24-161) (ligand)”, the % activity of full-length wt (AU/ml basis), Primary Assay was found to be 100% and the Activity (AU/ml), Primary Assay (ISRE-luciferase in HeLa cells), after transient transfection was 1.4e+07 AU/ml.
On the same counts, the results for “E38N + K61T (full-length) (from UniProt P01579 24-161) (ligand)” are 86% and 1.2e+07 AU/ml.
Substance “E38N + K61T + S99T (full-length) (from UniProt P01579 24-161) (ligand)” returned a % activity of full-length wt (AU/ml basis), Primary Assay of 10% and an Activity (AU/ml), Primary Assay (ISRE-luciferase in HeLa cells), after transient transfection of 1.4e+06 AU/ml.
On the same counts, the results for “E38N + S40T (full-length) (from UniProt P01579 24-161) (ligand)” are 71% and 9.9e+06 AU/ml.
On the same counts, the results for “E38N + S40T + K94C + S99T (full-length) (from UniProt P01579 24-161) (ligand)” are 7% and 940000 AU/ml.
On the same counts, the results for “E38N + S40T + N59C + S99T (full-length) (from UniProt P01579 24-161) (ligand)” are 79% and 1.1e+07 AU/ml.
Take “E38N + S40T + N83C + S99T (full-length) (from UniProt P01579 24-161) (ligand)”: the % activity of full-length wt (AU/ml basis), Primary Assay is 5% and the Activity (AU/ml), Primary Assay (ISRE-luciferase in HeLa cells), after transient transfection turned out to be 720000 AU/ml.
For “E38N + S40T + S99T (full-length) (from UniProt P01579 24-161) (ligand)”, the % activity of full-length wt (AU/ml basis), Primary Assay worked out at 93%; the % activity of full-length wt (specific activity), Primary Assay stood at 67%; the Activity (AU/ml), Primary Assay (ISRE-luciferase in HeLa cells), after transient transfection stood at 1.3e+07 AU/ml; the Specific activity (AU/mg), Primary Assay (ISRE-luciferase in HeLa cells), after purification stood at 1.4e+07 AU/mg.
For the substance “E38N + S40T + S99T (truncated after Leu135) (from UniProt P01579 24-158) (ligand)”, the % activity of full-length wt (AU/ml basis), Primary Assay was found to be 29% and the Activity (AU/ml), Primary Assay (ISRE-luciferase in HeLa cells), after transient transfection was determined as 4e+06 AU/ml.
On the same counts, the results for “E38N + S40T + S99T + N104C (full-length) (from UniProt P01579 24-161) (ligand)” are 16% and 2.3e+06 AU/ml.
In the same order, the values of “N10C + E38N + S40T + S99T (full-length) (from UniProt P01579 24-161) (ligand)” are 11% and 1.5e+06 AU/ml.
Take “N10C + S99T (full-length + 5 kDa mPEG) (from UniProt P01579 24-161) (ligand)”: the Activity relative to non-PEGylated product subjected to “PEGylation procedure” (%), Primary Assay stood at 23%.
On to “N10C + S99T (full-length) (from UniProt P01579 24-161) (ligand)”, for which the % activity of full-length wt (AU/ml basis), Primary Assay amounted to 18%; the % activity of full-length wt (specific activity), Primary Assay turned out to be 18%; the Activity (AU/ml), Primary Assay (ISRE-luciferase in HeLa cells), after transient transfection was determined as 2.5e+06 AU/ml; the Specific activity (AU/mg), Primary Assay (ISRE-luciferase in HeLa cells), after purification came to 3.8e+06 AU/mg.
For the substance “N16C + E38N + S40T + S99T (full-length) (from UniProt P01579 24-161) (ligand)”, the % activity of full-length wt (AU/ml basis), Primary Assay was found to be 26% and the Activity (AU/ml), Primary Assay (ISRE-luciferase in HeLa cells), after transient transfection is 3.7e+06 AU/ml.
“N16C + S99T (full-length + 5 kDa mPEG) (from UniProt P01579 24-161) (ligand)”: the Activity relative to non-PEGylated product subjected to “PEGylation procedure” (%), Primary Assay was determined as 59%.
“N16C + S99T (full-length + 10 kDa mPEG) (from UniProt P01579 24-161) (ligand)”: the % activity of full-length wt (specific activity), Primary Assay is 6%; the Specific activity (AU/mg), Primary Assay (ISRE-luciferase in HeLa cells), after purification stood at 1.3e+06 AU/mg; the specific activity relative to the corresponding non-PEGylated IFNG variant, Primary Assay was determined as 15%.
Regarding “N16C + S99T (full-length) (from UniProt P01579 24-161) (ligand)”, the % activity of full-length wt (AU/ml basis), Primary Assay is 79%; the % activity of full-length wt (specific activity), Primary Assay was 11%; the Activity (AU/ml), Primary Assay (ISRE-luciferase in HeLa cells), after transient transfection turned out to be 1.1e+07 AU/ml; the Specific activity (AU/mg), Primary Assay (ISRE-luciferase in HeLa cells), after purification worked out at 2.3e+06 AU/mg.
As for “N59C + S99T (full-length + 5 kDa mPEG) (from UniProt P01579 24-161) (ligand)”, the % activity of full-length wt (specific activity), Primary Assay is 11%; the Specific activity (AU/mg), Primary Assay (ISRE-luciferase in HeLa cells), after purification stood at 2.4e+06 AU/mg; the specific activity relative to the corresponding non-PEGylated IFNG variant, Primary Assay stood at 15%.
For “N59C + S99T (full-length) (from UniProt P01579 24-161) (ligand)”, the % activity of full-length wt (specific activity), Primary Assay came to 30% and the Specific activity (AU/mg), Primary Assay (ISRE-luciferase in HeLa cells), after purification was found to be 6.3e+06 AU/mg.
Take “S99T (full-length) (from UniProt P01579 24-161) (ligand)”: the % activity of full-length wt (AU/ml basis), Primary Assay is 36%; the % activity of full-length wt (specific activity), Primary Assay came to 105%; the Activity (AU/ml), Primary Assay (ISRE-luciferase in HeLa cells), after transient transfection was 5.1e+06 AU/ml; the Specific activity (AU/mg), Primary Assay (ISRE-luciferase in HeLa cells), after purification came to 2.2e+07 AU/mg.
In turn, “S99T (truncated after Leu135) (from UniProt P01579 24-158) (ligand)” displayed a % activity of full-length wt (AU/ml basis), Primary Assay of 25% and an Activity (AU/ml), Primary Assay (ISRE-luciferase in HeLa cells), after transient transfection of 3.5e+06 AU/ml.
Consider “S99T + N104C (full-length + 5 kDa mPEG) (from UniProt P01579 24-161) (ligand)”, for which the Activity relative to non-PEGylated product subjected to “PEGylation procedure” (%), Primary Assay was 42%.
“S99T + N104C (full-length) (from UniProt P01579 24-161) (ligand)”: the % activity of full-length wt (AU/ml basis), Primary Assay worked out at 36%; the % activity of full-length wt (specific activity), Primary Assay worked out at 17%; the Activity (AU/ml), Primary Assay (ISRE-luciferase in HeLa cells), after transient transfection stood at 5e+06 AU/ml; the Specific activity (AU/mg), Primary Assay (ISRE-luciferase in HeLa cells), after purification was determined as 3.5e+06 AU/mg.
“Wild-type (full-length) rhuIFNG (from UniProt P01579 24-161) (ligand)” displayed an Activity (AU/ml), Primary Assay (ISRE-luciferase in HeLa cells), after transient transfection of 1.4e+07 AU/ml and a Specific activity (AU/mg), Primary Assay (ISRE-luciferase in HeLa cells), after purification of 2.1e+07 AU/mg.
For the substance “Wild-type (truncated after Leu135) (from UniProt P01579 24-158) (ligand)”, the % activity of full-length wt (AU/ml basis), Primary Assay is 45% and the Activity (AU/ml), Primary Assay (ISRE-luciferase in HeLa cells), after transient transfection stood at 6.3e+06 AU/ml.
